Results as given in patent publication US20160216269A1 (BIOCARE MEDICAL, published 2016).

Target: T1, SOX10 epitope peptide QGGTAAIQAHYKSAH (human)
T1 construct: One of the overlapping peptides of about 15 amino acids covering human SOX10 147-253
T1 peptide: QGGTAAIQAHYKSAH
Assay: epitope mapping with overlapping SOX10 peptides, direct ELISA and dot blot
Description: In order to determine the peptide sequence of SOX10 that is recognized by anti-SOX10 antibodies such as BC34, epitope mapping may be conducted perhaps using two assays: direct ELISA and even dot blot. In an ELISA assay, the sensitivity and specificity of the anti-SOX10 [BC34] antibody may be determined by measuring the antibody titer at about 1:500 and about 1:1000. Overlapping peptides at a length of about 15 amino acids each, covering the human SOX10 protein sequence from perhaps 147 to 253 amino acids, may be used to determine a sequence of BC34 binding.

binding result: binds
B1: mouse monoclonal anti-SOX10 antibody BC34 (antibody, V domains shown)
VH: QVTLKESGPGILQPSQTLSLTCSFSGFSLSTFLIGVGWIRQPSGKGLEWLAHIWWNDNKYYNTALKNRLTISKDTSNNQVFLKIASVDTTDTATYYCVRMAGIGGTDAMDYWGQGTSVTVSS
VL: DIVLTQSPASLAVSLGQRATISCRASEIVEYYGTNLLQWYQQKPGQPPKLLIYAASNVESGVPARFSGSGSGTDFSLNIHPVEEDDIAIYFCQQSRKVPWTFGGGTKLEIK
notes: also called anti-SOX10 antibody [clone BC34]; SOX10 [BC34]
